assay: soluble on expression in E. coli; label from the status in PepcDB or PDB records

Sequence	soluble on expression in E. coli
MVHMSWFRRRRKSFFDLLEDIFREFEEEFRELEEEFEKLASRVQSRGEEFGKGPYIYGVRITIGPDGVPKVEEFGNIRMARGRPQIREEMEPLVDVIERDDEVWIVADIPGANKDKIKVRATEDKVVIKAENGKKYYKEVELPAKVDPKSAKASYRNGVLEIKLKKIKPAEEGTEVKVE	soluble
MFNNNDFKDYRKLLGFGSQNAFKEFLGAKDIQPCVDFNDLNALKKRLIEIFSAINSIYCFKYNEYELECFFKNSIERVFSKIVDTHIIYKLNNQGRRPEEVCFSWMRGFLVAEFFKDFIACLFSAQKETIKFFGGDNFENIESFKRSPKADFLLDNHLLLEVQSDFQGINDIKEHKVLEAKRRLITDKVPTIVVHFDLFNGQVACVEISKIKDNDLNWITRQQMEGQSVFNISQNFFDYKITEIPNKPLS	not soluble
SLNIKLKDFTMINAVSSLAPVQSLGNYKRVEKNEKVENNEAALDRVAEIKKAIENNQYKINLHETSHKMAKDLLGIS	soluble
MASPDEDNPGILYNGRFDFSDPNGPKCAWSGSNVELNFYGTEASVTIKSGGENWFQAIVDGNPLPPFSVNATTSTVKLVSGLAEGAHHLVLWKRTEASLGEVQFLGFDFGSGKLLAAPKPLERKIEFIGDSITCAYGNEGTSKEQSFTPKNENSYMSYAAITARNLNASANMIAWSGIGLTMNYGGAPGPLIMDRYPYTLPYSGVRWDFSKYVPQVVVINLGTNDFSTSFADKTKFVTAYKNLISEVRRNYPDAHIFCCVGPMLWGTGLDLCRSYVTEVVNDCNRSGDLKVYFVEFPQQDGSTGYGEDWHPSIATHQLMAERLTAEIKNKLGWLEHHHHHH	soluble
MTESEIHERFVDTYMHILKYVGDFVSVPTRPYKITFEAYTVMRMIATSEEPLTLVKIAKEQRVSRSAIARQINVLLDLKYIEQTTNTHDRRIKYLSLTPAGHKVEQEITTASEERFHQWVQVYGEKRASDTLRYINDAEQKATELGFSGFSGLHDKRGRHTEYSDPKTKN	not soluble
MKNLERLFAEKLLKIKAIKLQPANPFTWASGWKSPFYCDNRKTLSYPSLRNFVKIEITRLILERFGQVDAIAGVATGAIPQGALVADALNLPFVYVRSTPKDHGLENLIEGELRPGMKVVVVEDLISTGGSSLKAVEAIRRDGCEVIGMVAAYTYGFPVAEEAFKNAKVPLVTLTNYEAVLDVALRTGYIEEEDIATLNDWRKDPAHWDAGK	soluble
MGSDKIHHHHHHMSGPAGLIVRMDGFNLPAGYLASDEARAISFAYDDRYIAAGGPPLSLSMPLEQVSFGDVTARAFFDNLLPENDQMQRVMDREGLARDDIVGLLSHLGADCSGAISCLPIGADPIKVPGVLSEDYELLAPGAIAEIARSLAERQRLPDTITDPSPVAGVQRKIALTHTPQGFAKPRPGRKVPTTHILKVPETRLRRDARLEAAAARLASALGLDVSIPEAIVIDGVDALLITRFDRVVRDGVVYRLHQEDFAQAMGLPATLKYQRNGAPGRQFDAQAIARVLDQTEAPALSRTAFLSATIFNLLIGNTDNHAKNHGLLYRQGRAPILAPLYDLLPSRMNLDFNDQLSFNIGAADHPDAITFDDMMAFFEVFGMRRAAAARFIENVIKPMIEALERATLGLAGERLKDMDDLIGRETEQLVEVLGLDVAVRERDYYPKVRHALAPS	not soluble
MPTPARKTQKGGRKRRVNGVEEEILYIIGFFQDDSSIGLSTFFTKFCILYQDSKSNFRVLNLEMFSPENLNARKKMSQEKDTPSH	not soluble
MKWYTKYLQVYEKPFSEAPQEIVEEVRNKLKLLQSDNPLVTVSLIGYNEEKHLLASLWSLSEMKCKYPIEIIGTDNDSKDQTATIYEATGIPYVIEHQHSCGHARLCGLKRAKGKYHINIDSDTMYPPHYVETMVDALERPGIVAVSSLWSYIPDKEHSWVGLKIYEFIRDIHLWIQSIKRPELSVRGLVFAYRTDYARQVGIRTDIRRGEDGSLALRLKEYGNIYFIRKRKARAITGYGTISADGSLFNSFKVRAIYALKNIGRVFTRKKEYKDEDDNLIKSLEHHHHHH	soluble
MDVSLPCIKIQVQTRYIEEQSNPEYQRFVFAYLITIKNLSSQTVQLMSRRWLITDADGKQTVVEGDGVVGEQPRIKANDEYTYSSGTALDTPVGVMQGQYLMIDEQGESFTVEIEPFRLAVPHVLNLEHHHHHH	soluble
MGSDKIHHHHHHMAAVDLEKLRASGAGKAIGVLTSGGDAQGMNAAVRAVTRMGIYVGAKVFLIYEGYEGLVEGGENIKQANWLSVSNIIQLGGTIIGSARCKAFTTREGRRAAAYNLVQHGITNLCVIGGDGSLTGANIFRSEWGSLLEELVAEGKISETTARTYSHLNIAGLVGSIDNDFCGTDMTIGTDSALHRIMEVIDAITTTAQSHQRTFVLEVMGRHCGYLALVSALASGADWLFIPEAPPEDGWENFMCERLGETRSRGSRLNIIIIAEGAIDRNGKPISSSYVKDLVVQRLGFDTRVTVLGHVQRGGTPSAFDRILSSKMGMEAVMALLEATPDTPACVVTLSGNQSVRLPLMECVQMTKEVQKAMDDKRFDEATQLRGGSFENNWNIYKLLAHQKPPKEKSNFSLAILNVGAPAAGMNAAVRSAVRTGISHGHTVYVVHDGFEGLAKGQVQEVGWHDVAGWLGRGGSMLGTKRTLPKGQLESIVENIRIYGIHALLVVGGFEAYEGVLQLVEARGRYEELCIVMCVIPATISNNVPGTDFSLGSDTAVNAAMESCDRIKQSASGTKRRVFIVETMGGYCGYLATVTGIAVGADAAYVFEDPFNIHDLKVNVEHMTEKMKTDIQRGLVLRNEKCHDYYTTEFLYNLYSSEGKGVFDCRTNVLGHLQQGGAPTPFDRNYGTKLGVKAMLWLSEKLREVYRKGRVFANAPDSACVIGLKKKAVAFSPVTELKKDTDFEHRMPREQWWLSLRLMLKMLAQYRISMAAYVSGELEHVTRRTLSMDKGF	not soluble
REVLARDREVLRSVYGILVQAHYRNTPDDLLAMLESPHHRIYALEADGTPVAVADVVLEGPDVEEEARIALERLLYMAGSPGSGVVSWRVSRIAVHEDLQRRGLGSRLLRHVEAQARESGASLVTTMFSRHDVIPFWLKNGFKPFYVSPRYNRVTGEKNVALAKPLDSAGA	not soluble
MSLGNSAGFGSVGDNSSGGSGANRDANNRPSWFQETARRTIPNTVLRREVKSSSNSGEDDNGNRGDSTSTGFNTLTFGAKKHMLLGSSNVSTGGNDHMNPLLMDNSEAPPTVSISDWKREEGLFDLRNTRNENTINTIGTPTFISPISREKSEVSLFDSNSQSRSSSASSIGSESETGNAVVVFGYREAITKQILAYFAQFGEILEDLESELGDTETMRTPGYFFQQAPNRRRISREHGRTWTKLTYANHSSYLRALREHGTIYCGAAIGCVPYKHELISELSRDTYNSMNDVKQTNSISTNQLTQHNQSEVPKSNQTFETKPTNETERNQIKTPSAFGSDNKGNGSISSGRTKRRLSIKDGSSLFLSGTEGHHHHHH	soluble
MTKKKAKKNQKTGAAAAPPHESQKKEKENDFEMLEDIKRDEDLFFSETDISNISNFIRTTNKSFNSLGNTFVEQFTNRCSLAIFQALATCFEIHSEERDDVIRRLNIIYIVWRLPDLEPELRPKPPKNLSDVYSHPYATFLFAAEQIEHRIEAMLARIIVSNNINQVEKLTAPDFIQKAAAGGLTVVVEGIDRTGFVDWCEANTDHWPEVHDSVVPLPKAMRELGCERKDYESGMAEAFYPIMHNAPTQLPPRMEALEQEDPIIREWRLKVDPENTSATPVIYSMCSGDKMQEELMQAFDELEPTIAEYQSDLIAGMTAPELEELNKQIDCDDQMSQSSDSAPPSEVSSDLELDTALDIRDGMTMPLVDLKDEVIEGCVDRILDGTTLTTSKSDMMIQFVRTALITHPQYDRLLQASVLDENIISFIRTNVKFAGAFLVRNALSEQDTCLLFKRYMRLCEGVNSTVHSLETVLKLSKEFIEHDKLTQEHREVVLAFVRHTIRTCEGDRTVRLVAMLVKKLLRERVLNVEDIAADVKPFTLKYTDNRECTALYQSMINMQNGGGGGGQENMTTSTTTTTTTTKSSSPNSLSTTTTTTSHNPGASATTTTTTVVKTCGPATFKQTSRKVVLQFKNPSQNAHF	not soluble
MEAVVVEREAKGMKEIAIQEKDLTLQWRGNTGKLVKVRLKNTRAMEMWYNKQITEENIQEITTLNIIKNGKSLALEVYPEKSIYVKPNLGRINVPVFFIKTPINRGVFEEIFGETLKA	soluble
MAMSLREELWLWKKEKLAEHVANNLRKKKHEVWIARDREEILERVKELIPEGATVSAGGSLTLADTGVIELLRSGRYNFLDRAAAKTREEVEEIYRKSFWADYYFTSVNAITEDGKLVFLDGNGNRVAAVVFGPKNVVVIASVNKVVKDVEEARERLRYISPMNSKRLNLETPCTKTGFCADCSSPQRICDYFLVVESGVRQPGRFKVILTLEDFGLLEHHHHHH	not soluble
MEFEFIRNTLMGEYYVKCSMGHEIVGRWLQEEIGKDPTMIAQVEALIDKAFSLPSQEHTLTGTEISLMIQGDEVLVQENALSHDYDVEMESEFDFYDAESTASCGIEDFVALIEQWKDFLNI	not soluble
MKAYVALLHSIVLGDGRRVVMADLKAMAEALGCRAPRTLVATGNLLFEAPEKPLAELEAELEKAFEKTFGRHVDIIVRSAEDWSRLAAGNPFLAESERDPASVHVRVMRLPLEVDMREKLLGYCSRGERVAIVDGDLWVDFAGKASESKLLGALTTKRLGIGTVRNWNTVKGLRGMVAG	not soluble
QDKITVTSEKPVAAADVPADAVVVGIEKMKYLTPEVTIKAGETVYWVNGEVMPHNVAFKKGIVGEDAFRGEMMTKDQAYAITFNEAGSYDYFCTPHPFMRGKVIVE	soluble
GSHNLACPTPKEDGLAQQQTQLNLRSLLVNPEGPTLMRLNSVQSSERPLFLVHPIEGSTTVFHSLASRLSIPTYGLQCTRAAPLDSIHSLAAYYIDCIRQVQPEGPYRVAGYSYGACVAFEMCSQLQAQQSPAPTHNSLFLFDGSPTYVLAYTQSYRAKLTPGCEAEAETEAICFFVQQFTDMEHNRVLEALLPLKGLEERVAAAVDLIIKSHQGLDRQELSFAARSFYYKLRAAEQYTPKAKYHGNVMLLRAKTGGAYGEDLGADYNLSQVCDGKVSVHVIEGDHRTLLEGSGLESIISIIHSSLAEPRVSVREG	soluble
MDSQKDFNLGDSSKGEKEGMQPSTGNNQFEPFEFLKKMIQPGRVMKRSKNNLSSNEVWSVCRAVIDEFKKEQNLMEVSAPVTVIGDVHGNFHDLYRALLARTEQDITDEQKSNFSTRQFVRDKYVFLGNYIDKGPRSIECICLLFAFKICFPQKYILLRGPHECPSVNSSEFLGVMETFSPNHFKKIHKKFNEAFSWMPLAAVVGQKILCVHGGISPRLTSWEDIRKIKRPLKDATEDPLATDLLFADTLDFDLIHIPTRKPKYEFNVIRNMSVMYNEAAVTQFCEKFNLKLIIRSHMKVPFGYRFFSEKRLITIFNSTGFQNESNYGAVLKIDGNAKITIISLLPQQSKAEVQEKAHHSDMTSECNTMSSKGP	not soluble
MAVAANKRSVMTLFSGPTDIYSHQVRIVLAEKGVSFEIEHVEKDNPPQDLIDLNPNQSVPTLVDRELTLWESRIIMEYLDERFPHPPLMPVYPVARGESRLYMHRIEKDWYTLMNTIINGSASEADAARKQLREELLAIAPVFGQKPYFLSDEFSLVDCYLAPLLWRLPQLGIEFSGPGAKELKGYMTRVFERDSFLASLTEAEREMRLGRS	soluble
MAHHHHHHMQVPPLTELSPSISVHLLLGNPSGATPTKLTPDNYLMVKNQYALSYNNSKGTANWVAWQLNSSWLGNAERQDNFRPDKTLPAGWVRVTPSMYSGSGYARGHIAPSADRTKTTEDNAATFLMTNMMPQTPDNNRNTWGNLEDYCRELVSQGKELYIVAGPNGSLGKPLKGKVTVPKSTWKIVVVLDSPGSGLEGITANTRVIAVNIPNDPELNNDWRAYKVSVDELESLTGYDFLSNVSPNIQTSIESKVDN	soluble
